Biological target: ICAM-1 (COS cell transfectants) (UniProt P05362)
Assay: FACS of COS transfectants, one transfection out of at least five attempts

Sequence of UniProt P05362 (P05362 28-532 limits assumed): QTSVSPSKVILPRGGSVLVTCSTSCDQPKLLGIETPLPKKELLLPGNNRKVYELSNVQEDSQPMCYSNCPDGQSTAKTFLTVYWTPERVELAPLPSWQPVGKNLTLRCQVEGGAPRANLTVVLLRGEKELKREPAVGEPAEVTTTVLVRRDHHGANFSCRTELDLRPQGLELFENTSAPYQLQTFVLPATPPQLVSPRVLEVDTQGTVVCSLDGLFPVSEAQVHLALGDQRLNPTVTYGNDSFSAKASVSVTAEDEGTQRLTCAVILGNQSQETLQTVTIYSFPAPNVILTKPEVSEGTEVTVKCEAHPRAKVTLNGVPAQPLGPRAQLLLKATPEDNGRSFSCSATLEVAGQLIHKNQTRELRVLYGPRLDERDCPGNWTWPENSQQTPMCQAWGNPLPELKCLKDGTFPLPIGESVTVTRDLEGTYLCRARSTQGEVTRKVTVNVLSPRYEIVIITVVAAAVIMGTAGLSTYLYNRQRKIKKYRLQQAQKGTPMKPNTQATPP

## Fc-CD33Rg (from UniProt P20138 18-259) (Fc fusion)
  % binding: 36%

Reference: US20130280735A1
